Measured values taken from paper PMC6509359 (Molecular Cell, 2019).
Positions count from the first letter of the chain named. Numbers in names are those of the source. Where “and” joins values, the source holds several entries; their conditions need not be identical. Equal values may be shown once.

B1: HA-USP28 (2-1077) (enzyme, human, UniProt Q96RU2 2-1077, looked up)
chain: TAELQQDDAAGAADGHGSSCQMLLNQLREITGIQDPSFLHEALKASNGDITQAVSLLTDERVKEPSQDTVATEPSEVEGSAANKEVLAKVIDLTHDNKDDLQAAIALSLLESPKIQADGRDLNRMHEATSAETKRSKRKRCEVWGENPNPNDWRRVDGWPVGLKNVGNTCWFSAVIQSLFQLPEFRRLVLSYSLPQNVLENCRSHTEKRNIMFMQELQYLFALMMGSNRKFVDPSAALDLLKGAFRSSEEQQQDVSEFTHKLLDWLEDAFQLAVNVNSPRNKSENPMVQLFYGTFLTEGVREGKPFCNNETFGQYPLQVNGYRNLDECLEGAMVEGDVELLPSDHSVKYGQERWFTKLPPVLTFELSRFEFNQSLGQPEKIHNKLEFPQIIYMDRYMYRSKELIRNKRECIRKLKEEIKILQQKLERYVKYGSGPARFPLPDMLKYVIEFASTKPASESCPPESDTHMTLPLSSVHCSVSDQTSKESTSTESSSQDVESTFSSPEDSLPKSKPLTSSRSSMEMPSQPAPRTVTDEEINFVKTCLQRWRSEIEQDIQDLKTCIASTTQTIEQMYCDPLLRQVPYRLHAVLVHEGQANAGHYWAYIYNQPRQSWLKYNDISVTESSWEEVERDSYGGLRNVSAYCLMYINDKLPYFNAEAAPTESDQMSEVEALSVELKHYIQEDNWRFEQEVEEWEEEQSCKIPQMESSTNSSSQDYSTSQEPSVASSHGVRCLSSEHAVIVKEQTAQAIANTARAYEKSGVEAALSEVMLSPAMQGVILAIAKARQTFDRDGSEAGLIKAFHEEYSRLYQLAKETPTSHSDPRLQHVLVYFFQNEAPKRVVERTLLEQFADKNLSYDERSISIMKVAQAKLKEIGPDDMNMEEYKKWHEDYSLFRKVSVYLLTGLELYQKGKYQEALSYLVYAYQSNAALLMKGPRRGVKESVIALYRRKCLLELNAKAASLFETNDDHSVTEGINVMNELIIPCIHLIINNDISKDDLDAIEVMRNHWCSYLGQDIAENLQLCLGEFLPRLLDPSAEIIVLKEPPTIRPNSPYDLCSRFAAVMESIQGVSTVTVK
notes: USP28, human, residues 2-1077; also called hemagglutinin (HA)-tagged USP28, wild type; source: HEK293, transfected (pOPINE), in lysate; not shown: HA, N-terminal, kept
B2: M. musculus USP25 (157-715) (domain or fragment, mouse (Mus musculus), UniProt P57080 157-715, looked up)
chain: NPYDRKRQEKAPVGLKNVGNTCWFSAVIQSLFNLLEFRRLVLNYKPPSNAQDLPRNQKEHRNLPFMRELRYLFALLVGTKRKYVDPSRAVEILKDAFKSNDSQQQDVSEFTHKLLDWLEDAFQMKAEEETDEEKPKNPMVELFYGRFLAMGVLEGKKFENTEMFGQYPLQVNGFKDLHECLEAAMIEGEIESLHSDNSGKSGQEHWFTELPPVLTFELSRFEFNQALGRPEKIHNKLEFPQVLYLDRYMHRNREITRIKREEIKRLKDYLTVLQQRLERYLSYGSGPKRFPLVDVLQYALEFASSKPVCTSPVDDIDASSSASGPLPSQSLPSTTEQQGPCASDLPGSSSPASGAALPLRSVIHKPFTQSRIPPDLPMHPAPRHITEEELCVLESCLHRWRTEIENDTRDLQESISRIHRTIELMYSDKSMIQVPYRLHAVLVHEGQANAGHYWAYIFDHRESRWMKYNDIAVTKSSWEELVRDSFGGYRNASAYCLMYIDDKAQFLIQEEFNKETGQALVGMETLPPDLRDFVEEDNQRFEKELEEWDTQLAQRSLQE
notes: also called USP25 catalytic domain from mouse; source: E. coli Rosetta2(DE3)pLacI, purified (HisTrap, 3C protease, Resource Q, size exclusion)
B3: Chimera: Human USP25 (157-[AIM of Human USP28]-714) (domain or fragment)
chain: NPYDRKRQDKAPVGLKNVGNTCWFSAVIQSLFNLLEFRRLVLNYKPPSNAQDLPRNQKEHRNLPFMRELRYLFALLVGTKRKYVDPSRAVEILKDAFKSNDSQQQDVSEFTHKLLDWLEDAFQMKAEEETDEEKPKNPMVELFYGRFLAVGVLEGKKFENTEMFGQYPLQVNGFKDLHECLEAAMIEGEIESLHSENSGKSGQEHWFTELPPVLTFELSRFEFNQALGRPEKIHNKLEFPQVLYLDRYMHRNREITRIKREEIKRLKDYLTVLQQRLERYLSYGSGPKRFPLVDVLQYALEFASSKPVCTSPVDDIDASSPPSGSIPSQTLPSTTEQQGALSSELPSTSPSSVAAISSSLPKSKPLTSSRSSPDLPMHPAPRHITEEELSVLESCLHRWRTEIENDTRDLQESISRIHRTIELMYSDKSMIQVPYRLHAVLVHEGQANAGHYWAYIFDHRESRWMKYNDIAVTKSSWEELVRDSFGGYRNASAYCLMYINDKAQFLIQEEFNKETGQPLVGIETLPPDLRDFVEEDNQRFEKELEEWDAQLAQKALQE
B4: Human USP25 (157-720) (domain or fragment, UniProt Q9UHP3 157-720, looked up)
chain: NPYDRKRQDKAPVGLKNVGNTCWFSAVIQSLFNLLEFRRLVLNYKPPSNAQDLPRNQKEHRNLPFMRELRYLFALLVGTKRKYVDPSRAVEILKDAFKSNDSQQQDVSEFTHKLLDWLEDAFQMKAEEETDEEKPKNPMVELFYGRFLAVGVLEGKKFENTEMFGQYPLQVNGFKDLHECLEAAMIEGEIESLHSENSGKSGQEHWFTELPPVLTFELSRFEFNQALGRPEKIHNKLEFPQVLYLDRYMHRNREITRIKREEIKRLKDYLTVLQQRLERYLSYGSGPKRFPLVDVLQYALEFASSKPVCTSPVDDIDASSPPSGSIPSQTLPSTTEQQGALSSELPSTSPSSVAAISSRSVIHKPFTQSRIPPDLPMHPAPRHITEEELSVLESCLHRWRTEIENDTRDLQESISRIHRTIELMYSDKSMIQVPYRLHAVLVHEGQANAGHYWAYIFDHRESRWMKYNDIAVTKSSWEELVRDSFGGYRNASAYCLMYINDKAQFLIQEEFNKETGQPLVGIETLPPDLRDFVEEDNQRFEKELEEWDAQLAQKALQEKLLASQ
notes: also called USP25 catalytic domain; source: E. coli Rosetta2(DE3)pLacI, purified (HisTrap, 3C protease, Resource Q, size exclusion)
B5: G. gallus USP28 (143-706) (domain or fragment, chicken (Gallus gallus), UniProt Q5ZID5 143-706, looked up)
chain: SKQSDWKRVGDWPVGMKNIGNTCWFSAVIQSLFQLPQFRRLVLSYSFPPNVLESCRTRTGKRNIAFMQELQCLFALMLGTRRKFVDPSAALELLRDAFKSTEEQQQDVSEFTHKLLDWLEDAFQLAVNVRSPGDKSENPMVQLFYGTFLTEGVHEGNTFSKIETFGQYPLQVNGYRNLNECLEGAMVEGEMDEETATQSVKYVQERWFTKLPPVLTFELSRFEFNQSLGQPEKIHTKLEFPQTIFMDRYLYCSKELIQTKREEMKKLKEKMLVLQQKLERYMKYGSGPARFPLPDMLQYVLEFITTKPAGAVSSACVSSTEDSQMMDRQSQGESLILGTPSQPDSMLDGKDGKPEDEAVLLANSSPQQQLNAPLQPSEPPAEMSDCPAPHVVSEEEMNLVTTCLQRWRNEIEQDVRDLKESIARVSLSIDEMYSDPHLQQVPYHLHAVLVHEGQANAGHYWAFIYDQPRKSWLKYNDISVTESSWEELERDSFGGLRNASAYCLMYISDKVSHVVAGEGDGSEVGQFQKEVEALPPELRRYIQEDNWRLEQEAEEWEEEQSCKI
notes: USP28, chicken, residues 143-706; also called USP28 catalytic domain from chicken; source: E. coli Rosetta2(DE3)pLacI, purified (HisTrap, 3C protease, Resource Q, size exclusion)
B6: M. musculus USP25 (1-1055) (enzyme, mouse (Mus musculus), UniProt P57080 1-1055, looked up)
chain: MTVEQNVLQQSAAQKHQQTFLNQLREITGINDAQILQQALKDSNGNLELAVAFLTAKNAKTPPQEETGYYQTALPGNDRYISVGSQADANVIDLTGDDKDDLQRAIALSLAESNRAFRETGITDEEQAISRVLEASIAENKACLKRTPIEVWRDSRNPYDRKRQEKAPVGLKNVGNTCWFSAVIQSLFNLLEFRRLVLNYKPPSNAQDLPRNQKEHRNLPFMRELRYLFALLVGTKRKYVDPSRAVEILKDAFKSNDSQQQDVSEFTHKLLDWLEDAFQMKAEEETDEEKPKNPMVELFYGRFLAMGVLEGKKFENTEMFGQYPLQVNGFKDLHECLEAAMIEGEIESLHSDNSGKSGQEHWFTELPPVLTFELSRFEFNQALGRPEKIHNKLEFPQVLYLDRYMHRNREITRIKREEIKRLKDYLTVLQQRLERYLSYGSGPKRFPLVDVLQYALEFASSKPVCTSPVDDIDASSSASGPLPSQSLPSTTEQQGPCASDLPGSSSPASGAALPLRSVIHKPFTQSRIPPDLPMHPAPRHITEEELCVLESCLHRWRTEIENDTRDLQESISRIHRTIELMYSDKSMIQVPYRLHAVLVHEGQANAGHYWAYIFDHRESRWMKYNDIAVTKSSWEELVRDSFGGYRNASAYCLMYIDDKAQFLIQEEFNKETGQALVGMETLPPDLRDFVEEDNQRFEKELEEWDTQLAQRSLQEKLLAAPKLREAEASATTAQAGGADYLEQPSRSDLSKHWKEETLRVIAKASHDLEDKGPETVLQSAIKLEYSRLVKLAQEDTPPETDYRLHHVLVYFIQNQAPKKIIEKTLLEQFGDRNLSFDERCHNIMKVAQAKLEMIKPEEVNLEEYEEWHADYKKFRETTMYLITGLENFQRESYIDSLLFLLCAYQNNKELLSKGPYRGHDGELISHYRRECLLKLNEQAAELFESGEDGDVNNGLIIMNEFIVPFLPLLLVDDMEEKDILAVEDMRNRWCSYLGQEMEANLQEKLTDFLPKLLDCSTEIKGFHEPPKLPSYSAHELCERFARIMLSLSRTPADGR
notes: dimer-tetramer equilibrium; also called full-length mouse USP25; source: E. coli Rosetta2(DE3)pLacI, purified (HisTrap, 3C protease, Resource Q, size exclusion)
B7: Flag-USP25 (2-1055) (enzyme, human, UniProt Q9UHP3 2-1055, looked up)
chain: TVEQNVLQQSAAQKHQQTFLNQLREITGINDTQILQQALKDSNGNLELAVAFLTAKNAKTPQQEETTYYQTALPGNDRYISVGSQADTNVIDLTGDDKDDLQRAIALSLAESNRAFRETGITDEEQAISRVLEASIAENKACLKRTPTEVWRDSRNPYDRKRQDKAPVGLKNVGNTCWFSAVIQSLFNLLEFRRLVLNYKPPSNAQDLPRNQKEHRNLPFMRELRYLFALLVGTKRKYVDPSRAVEILKDAFKSNDSQQQDVSEFTHKLLDWLEDAFQMKAEEETDEEKPKNPMVELFYGRFLAVGVLEGKKFENTEMFGQYPLQVNGFKDLHECLEAAMIEGEIESLHSENSGKSGQEHWFTELPPVLTFELSRFEFNQALGRPEKIHNKLEFPQVLYLDRYMHRNREITRIKREEIKRLKDYLTVLQQRLERYLSYGSGPKRFPLVDVLQYALEFASSKPVCTSPVDDIDASSPPSGSIPSQTLPSTTEQQGALSSELPSTSPSSVAAISSRSVIHKPFTQSRIPPDLPMHPAPRHITEEELSVLESCLHRWRTEIENDTRDLQESISRIHRTIELMYSDKSMIQVPYRLHAVLVHEGQANAGHYWAYIFDHRESRWMKYNDIAVTKSSWEELVRDSFGGYRNASAYCLMYINDKAQFLIQEEFNKETGQPLVGIETLPPDLRDFVEEDNQRFEKELEEWDAQLAQKALQEKLLASQKLRESETSVTTAQAAGDPEYLEQPSRSDFSKHLKEETIQIITKASHEHEDKSPETVLQSAIKLEYARLVKLAQEDTPPETDYRLHHVVVYFIQNQAPKKIIEKTLLEQFGDRNLSFDERCHNIMKVAQAKLEMIKPEEVNLEEYEEWHQDYRKFRETTMYLIIGLENFQRESYIDSLLFLICAYQNNKELLSKGLYRGHDEELISHYRRECLLKLNEQAAELFESGEDREVNNGLIIMNEFIVPFLPLLLVDEMEEKDILAVEDMRNRWCSYLGQEMEPHLQEKLTDFLPKLLDCSMEIKSFHEPPKLPSYSTHELCERFARIMLSLSRTPADGR
notes: tetrameric and dimeric populations; also called FLAG-tagged USP25; ectopically expressed wild-type USP25; source: HEK293, transfected (pOPINE), in lysate; not shown: Flag, N-terminal, kept
B8: Flag-USP25 (2-1055) P521S F522E (enzyme, human, UniProt Q9UHP3 2-1055, looked up)
chain: B7 chain with P520S, F521E
notes: also called USP25 mutated in the AIM (P521S F522E); source: HEK293, transfected (pOPINE), in lysate; not shown: Flag, N-terminal, kept

Tests used:
[1] = molecular target: the molecule itself; assay: native gel or EMSA; native PAGE of lysates of HEK293 cells transfected with FLAG- or HA-tagged proteins, immunoblotting; recombinant USP25 tetramer and dimer fractions as size standard
[2] = molecular target: the molecule itself; assay: not stated; oligomeric states of purified orthologs and of full-length proteins, Figures S7A, S7B and S3J
[3] = molecular target: T1, ubiquitin-propargylamine, Ub(1-75)-PA (UniProt P0CG48 1-75, C-terminal propargylamine (PA) after residue 75); assay: covalent reaction with the ubiquitin-propargylamine probe; 1.3 eq of His6-3C-Ub(1-75)-PA, 1–4 h at 4°C; complex purified over HisTrap by the probe's tag, 3C protease, gel filtration; details: both partners purified
T1 construct: ubiquitin residues 1-75, C-terminus carries propargylamine (reactive probe); reacts covalently with the DUB; the His6-3C tag was on the probe during the reaction and the HisTrap step and was cut off with 3C protease before gel filtration; also called Ub-PA; His6-3C-Ub(1-75)-PA; source: assembled as described previously (Gersch et al., 2017), > 95% purity by intact protein mass spectrometry; not …

[4] = molecular target: the molecule itself; assay: SEC-MALS; 100 μL of 1-2 mg/mL protein on Superdex 200 10/300, 0.5 mL/min, PBS + 2 mM DTT

| Binder | stoichiometry N [1] | stoichiometry N [2] | also measured |
| --- | --- | --- | --- |
| B1 | 2 |  |  |
| B2 |  | 4 | binding result [3]: binds |
| B3 |  |  | stoichiometry N [4]: 2 |
| B4 |  |  | stoichiometry N [4]: 4; binding result [3]: binds |
| B5 |  | 2 |  |
| B6 |  | 2 and 4 |  |
| B7 | 4 and 2 |  |  |
| B8 | 2 |  |  |
